Experimental data reported in a protein production outcome set (Wang et al. 2014).

Experiment: label from the status in PepcDB records
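Note: failed if final PepcDB status was selected cloned or expressed and not failed if soluble or beyond.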

Row | Sequence | protein production
1 | MYHILFRRKSIVPAYNESTTIVSSIDSLLHLDYEAYEIIVVDDGSSDNTSDVLKEEFALMKISNTIDSIIATQTCKDVFQRQVGKVKLTLIVKENGGKGDALNMGINAANYDYFLCLDADSMLQVDSLSQISKSIQVDPTVIAVGGLVQVAQGVKIEQGKVASYRLPWRIIPCAQALEYDSSFLGARIFLDYLRANLIISGAFGLFKKDLVKAVGGYDTQTLGEDMELVMKLHFFCRNNNIPYRICYETDAVCWSQAPTNLGDLRKQRRRWYLGLYQCLKKYKSIFANYRFGAVGSISYIYYILFELLTPFIECFGIVIIFLSLLFNQLNIPFFISLVSLYIFYCVLITLSSFLHRIYSQQLVIGILDIVKVFYIAVFRYLILHPVLTFVKVASVIGYKNKKMVWGHITREKQMKDFETSVT | failed
2 | MYIPKYFKVTNAEEIWNFVQENSFGTVVTTEQGKPIATHLPLGFNKKDDHYYITGHFAYGNPQWRTFEACEDVLVMFQGPHAYISSSWYSRENVPTWNYQAVHMYGKASMLEKDELAEELTIMLEQKTPTQAFSVLWDKLSPKLLESELKGIVGFKIKVEDIQAAYKLSQNRNETDYMNVIEQLQNEENPNAKQMAELMEDKLKKQI | not failed
3 | MYKATVIIKLKKGVLNPEGRTIQRALNFLGFNNVKEVQTYKMIDIIMEGENEEKVKEEVEEMCKKLLANPVIHDYEIKVEKIE | not failed
4 | MYKDKVAVIMSVYKSDNPIDFNVAVNSIIRQTLKCDIFIYQDGPVSRELKSAINRFRKFNNIFIFVSEENKGLAYALNYLIDSCLLNNYQYIARMDSDDISHKNRMSIQVNFLEDNSDIHVVGSYCKEFGADCSLAEKKLPITHNDLLNFSITRCPFIHPSVMFRTSIFYNGLRYPVNTKYTEDMAFWFILLDLGYKFENIPETLIDYRMTENTVLRRRGFDKALSEVFIRFKYMIKFKKITVKNVSFIIGRFVFHLLPPNAIKYLYKKMR | failed
5 | MYKEGACLYRNPLRSKSDVKDWRMEGGGQISFDDHSLHLSHVQDEAHFVFWCPETFPDGIIVTWDFSPIEQPGLCMLFFAAAGIRGEDLFDPSLRKRTGTYPEYHSGDINALHLSYFRRKYAEERAFRTCNLRKSRGFHLAAMGADPLPSPDDADSPYRMKLIKDKGYVHFSINGLPILEWMDDGSTYGPVLTKGKIGFRQMAPMKAVYRDFAVHQAVRR | not failed
6 | MYKHILVPVDLNEQGFADKAVQLAVWHAKHSNAEIHLLNVLPGIHMSMVATYFPKDAAAQMKNDVRAQLKAFAEKHIAEEVVYKLHIAEGKPYATILDYAERLGADLIVMPSHKRSRIDKVMLGSVASKVVENSPINVMVVKPQG | not failed
7 | MYKLGVFLLATLLSANTQKVSDIAKDIQHKETLLKKTHEEKNQLNSRLSSLGEAIRSKELQKAEMERQMIALKKSLEKNRNESLAQEKVLTNYRKSLDHLQKKRSFLQKRVFDTLLQDFLFSQALKGQNLASSNDVVLQVAFENLHQSTLSKMSQLSQEEKELNTQALKVKNSIQKISSIIDEQKTREVTLKSLKTEQDKLILSMQKDYAIYNQRLTLLEKERQNLNALLKRLNIIKQNRENEEKVSLKKSSQALEVKQVASSYQNINTTSYNGPKTIAPLNDYEVVQKFGPYIDPVYNLKIFSESITLVSKTPNALVRNVLDGKIVFAKEINMLKKVVIIEHKNGIRTIYSQLDKIAPTIKSGMRIQKGYVLGRIDQRLGFEVTMREKHINPLELIARN | failed
8 | MYKTIIMPVDVFEMALSDKAVRHAEFLAQQDGVIHLLHVLPGSASFTMSRFTADLRRFEEHLQHEAETRLQTMVSHFSIDPSRIKLHVRFGSVRDMVNELASEINADVVVIGSRNPSISTHLLGSNASSVIRHAHIPVMVVR | failed
9 | MYLLNDKVAHELKKPFGKVYKELPSIEGKVVSIGDVTTKHLLSNGIIPDLSILDFKTKRNIPVDIPHKFKTIFEVENPQGCISDEAIERIKYLSTIHDRDMALIIKGEEDLLTIPVIKYFPEDTSVIYGQPDEGMVLLKITDELKQKIEKLLKEMEER | failed
10 | MYLNPKLSYMQFFMGFLFVITFILATFNICSYLVAIVCMALLNLTFVIGAFQQKQYTSFVIALVMSFSFSIVAIVFYIK | failed
11 | MYLSLLKSLNRLSPRAWDFVQLTRIDKPIGIYLLLWPTLWAVWIAGKGSPSLNTVFIFVAGVFLMRAAGCVINDFADRKVDGHVKRTEQRPLVSGKVSSREALVLFAVLVSLSFVLVLFTNSTTIWLSFGGLALAACYPFMKRYTYYPQVVLGAAFSWGMPMAFTAETGELPAAAWLLYIANLLWTVGYDTYYAMVDRDDDLKIGVKSTAVLFGDADRVIILSLQGLALGCLALAGSRFELGAFFYMGLLVAAACFAWEFWSTRLRERDACFKAFLHNHWAGLAIFLGIVADYALR | failed
12 | MYLYLSLILLAFTLSLDSCSVGLTYGLRSVRIPLRSIIIIGMCSAAVMLVSMGIGHMIAKVFSPVIATRIGGLVLIGIGIWVLYQFFRSERKEEPKQEEKVWKLEIASLGLVIQILRKPTVADFDKSGTISAGEALLLGIALSVDSFGAGIGASLLGYAPAMMAILVAVMSSLFLFIGMKLGTVLSNMKWLQKFTFLPGVLLIIIGIWKM | failed
13 | MYMDHFPTFGGYIFSMATYYSLIPLTLLIALRAKWDYIMRHYWRSVARGFIIAILIALPVTSILQFKLTGDYLYVYSLTKTGVCITSSCLISRMKENEYYKFNVTGLQKYGIPNLGIMQAYRLVDKKFNKLKWRYDVVNAVVIIRSLFPLPITEVWSYEVDPKESHKIIGLRKFYVYYPYNPGTLLSRAYDFEFTMFLWGSGGGVA | failed
14 | MYMSSLQSTRERVLGTPRRRYKVLVAKMGLDGHDRGAKVVARALRDAGFEVVYTGLRQTPEQVAMAAVQEDVDVIGVSILNGAHLHLMKRLMAKLRELGADDIPVVLGGTIPIPDLEPLRSLGIREIFLPGTSLGEIIEKVRKLAEEKRMREEAEASEQVGQA | not failed
15 | MYNTVVYSIVVPLYNEELVIDENYMRLKKIMDSLKENYEIMYVNDGSKDSTMNKVEKICEKDKRIKLVNFSRNFGHQCAISAGMELSAGDAIIVIDADLQDPPEVIPQMIDKWKDGYDVVYGKRLKRKGESFLKKFTAKIFYRLLRSITNIDIPVDTGDFRLIDRKVCDTLSSLPERNRYVRGLVSWVGFKQTFVEFTRQERFAGASKYPLKKMLKLAFDGITSFSYKPLVASTYLGGLMFLLGLLAFIYVTAKNLYSHKTILTLGLILAINLCMFGLIFIILGILGQYIGRISDESKARPNYIIASTINYKENIKEVEPSEVKLN | failed
16 | MYPSSSPGHRQYFLGVKSSLPLLWLMVFPALIGGVLNINPVQAQGTPYIPPPITPPPLSPSENPFDPSLFPTDPLIPSGETLTPLQRRRLIEALDALEAEALVLDQAGQGDQAFEVRYRSLRGRQRLGDLAEVEALGRIGAIAWEQGRNQDVMAIGQRLEDLQLSLTKDKAMSPELLTAFAKAYGQLHSLDSAIAVYQQMRREAQQQGDYRRENQALSMLGELYLAKFNYPAAAEVYETLLARATNARNSYYEGIYLQKLGEIYQQSAQPDNAIRIKEQLVQRRLQDGKPELVPDIQIAIGDHYLELEQPENASQAYQKAYTLAWSIKQLSTAAIALDKLGDLYLFSEQPNYALQIYKQLLQVQQQSYNYYGMMITYEKIAQLYIDAQQTSAALTAYQQALSLARSLKYSTKENNILNQIQTISGGTGS | failed
17 | MYPYIKLIATLFRAKNSPQMNLDEKSVLNCRAGLTDIDVFVELNNARHLTYMEFGRWDFAQRTGLLSLMRKNKWAFAVGGASVRYRRRIAFWKKFTVTTQVICHDGRWFYFLQETHIKDKVCSSALIKAAFTSKQGLVPATEVLAAYGKTTPNFDVPDWVNAWIDAESQRPWPLEHHHHHH | not failed
18 | MYQDRQGVVGGGGGGGSAPHGIILAVVVALVVLVPFFIGDSGEAITDAIAELLSPVGLLLLPIILLLTIQFLSSERGSFVSAIFSTGEPESIHRVSGSPVGVALFLVLILFLLYYRFSIFGGDDGSDD | failed
19 | MYQTQTNKEKFVLFLKLFIPVLIYQFANFSATFIDSVMTGQYSQLHLAGVSTASNLWTPFFALLVGMISALVPVVGQHLGRGNKEQIRTEFHQFLYLGLILSLILFLIMQFIAQPVLGSLGLEDEVLAVGRGYLNYMLIGIMPLVLFSICRSFFDALGLTRLSMYLMLLILPFNSFFNYMLIYGKFGMPRLGGAGAGLGTSLTYWAIFIVIIIVMSLHPQIKTYHIWTLERIKAPLIIEDIRLGLPIGLQIFAEVAIFAVVGLFMAKFSSIIIAAHQAAMNFSSLMYAFPLSISTALAITISFEVGAERFQDANTYSRIGRLTAVGITSGTLLFLFLFRENVAAMYNSDPHFVAITAQFLTYSLFFQFADAYAAPVQGILRGYKDTTKPFMIGAGSYWLCALPLAVILEKNSQLGPFAYWIGLITGIFVCGLFLNQRLQKIKKLYY | failed
20 | MYRIIEAPNSGKYPFSHSLLIGKSCIIDTGSGEALAPLRVDCVLNTHWHEDHIAMNSIGRKVLAHPLDAEAIESYEEFRRRYGIGDSVRLFINFEFGQVDDVFEDGEQLEFEGVSVEVIHTPGHSAGHCCFVINNEAVFLGDIDLTSFGPWYGCLDCDVDDFVRSVKKMMREVERRDIEIAIPSHGRPVYGKEEIIGAMREYLKKIFERDKAIRELVRLGVDPVGKGIIYRKIPEPREIYLHFEKIMVEKHLTTSLDEFCLDLEHHHHHH | failed
21 | MYRLLALFVPPEAAFRTGRGFSFDAGEVTGAIGDSVTVLPLVVALGLLTPASLPHLLAGFGVFQVIWGLYYGVPLSVEPMKALAGLAIAGTLSHGGLVAAGLVAGGVLLVAGRTGSLSWIQQFVGEPVVRGVQFAVACLLVVAAVDLVAGSVGIAAAGAGLALVVALVSRNAVALVVLAVGAVWAATAGGIPAPAAPSLELFPAGGPTLSVGAIEGLLAQLAMTVGNAAVATSLLLSDLYDAEISPDRLADSMGAMNLAAVPLGAVPMCHGSGGLAGKHAFGARTGTANLVAGGFYAGLALVAGLLAAFPMALLGVLLVVVAASLSRVAFTKTDRRLFVAGVGGLAVVTNVAVAFVAATLWWQLRG | failed
22 | MYRMDKYTIGLIRVITLEDKEILNLHGRIIESAFPELKVVSRCIEDQPKGIYNEETEREAEPKIIRLAKEFEREGVDAIIISCAADPAVEKVRKLLSIPVIGAGSSVSALALAYGRRVGVLNLTEETPKVIRSILGNNLIAEDHPSGVSNTLDLLTDWGRREVINAAKRLKEKGVEVIALGCTGMSTIGIAPVLEEEVGIPVIDPVIASGAVALHALKRREVKRFEGR | not failed
23 | MYRTTGPALRPGGFELTDWAVEHCRFQAGDRILDVGCGRGATVDRLRSHYHLEAYGIDPSATLLTLGQETYPDLPLSKARGEDIPFTNSCFDGVFVECSLSLMTDPDQALSEIRRVLKVKGKLIIHDVYARNPQGTPDLRELSIGTCIRNALVKEDLEHGLESKGLRTIHWQDHSPLLNRLMMELIMTHGSMSAFWLKSTHCSADSNRVQAALKKAKVGYFQLIAEKEAEKEAEHCPVR | failed
24 | MYSELKEGVNLYNKKDYQEALVFFLSVSTEDVLIKIEINYYIGLIYSRLSEYEQALEYLEQVVTASKDIAKVYQCRLILAFIYANTGRTRLAEFELSKLIEAGYESVQVFSSLAYVYYEHHEIEKAIDYYEKALKTAPENSTALNGLAYILAETDRDLTRSLLLCKKAVEKQPENPAYLDSMALIYHKMNLPSEAKSYITRAKEKLPDNKIILKHFEMISSDAREA | failed
25 | MYTYSLLNLSHCRRQTRKKRKTDHTEGFLMEETKPKTVEDVETVDVYTAKGFLSTGHRYLDVRTNEEFAKSHVEEALNIPYMFKTDEGRVINPDFLSQVASVCKKDEHLIVACNAGGRGSRACVDLLNEGYDHVANMGGGYSAWVDAGFAGDKPPEDLKIACKFRPKEN | failed
